# Assay results: IntAct's records for PubMed 21822214
# B1: B-cell linker protein (Homo sapiens), Q8WV28 (parent)
# chain: MDKLNKITVPASQKLRQLQKMVHDIKNNEGGIMNKIKKLKVKAPPSVPRRDYASESPADEEEQWSDDFDSDYENPDEHSDSEMYVMPAEENADDSYEPPPVEQETRPVHPALPFARGEYIDNRSSQRHSPPFSKTLPSKPSWPSEKARLTSTLPALTALQKPQVPPKPKGLLEDEADYVVPVEDNDENYIHPTESSSPPPEKAPMVNRSTKPNSSTPASPPGTASGRNSGAWETKSPPPAAPSPLPRAGKKPTTPLKTTPVASQQNASSVCEEKPIPAERHRGSSHRQEAVQSPVFPPAQKQIHQKPIPLPRFTEGGNPTVDGPLPSFSSNSTISEQEAGVLCKPWYAGACDRKSAEEALHRSNKDGSFLIRKSSGHDSKQPYTLVVFFNKRVYNIPVRFIEATKQYALGRKKNGEEYFGSVAEIIRNHQHSPLVLIDSQNNTKDSTRLKYAVKVS
# Variants of: B1
# Conditions: with cd2ap_human CD2AP
row,Variant,effect of a mutation on the interaction
1,MDKLNKITVPASQKLRQLQKMVHDIKNNEGGIMNKIKKLKVKAPPSVPARDYASESPADEEEQWSDDFDSDYENPDEHSDSEMYVMPAEENADDSYEPPPVEQETRPVHPALPFARGEYIDNRSSQRHSPPFSKTLPSKPSWPSEKARLTSTLPALTALQKPQVPPKPKGLLEDEADYVVPVEDNDENYIHPTESSSPPPEKAPMVNRSTKPNSSTPASPPGTASGRNSGAWETKSPPPAAPSPLPAAGKKPTTPLKTTPVASQQNASSVCEEKPIPAERHRGSSHRQEAVQSPVFPPAQKQIHQKPIPLPAFTEGGNPTVDGPLPSFSSNSTISEQEAGVLCKPWYAGACDRKSAEEALHRSNKDGSFLIRKSSGHDSKQPYTLVVFFNKRVYNIPVRFIEATKQYALGRKKNGEEYFGSVAEIIRNHQHSPLVLIDSQNNTKDSTRLKYAVKVS [R49A;R247A;R312A],disrupting interaction
